In US20260232769A1 (WUXI BIOLOGICS IRELAND, published 2026):
Residue numbers refer to the chain shown, from its start.

T1: IL-2Rβ/γc complex (intermediate affinity receptor) on primary human CD8+ T cells (human, UniProt P14784 27-551; P31785 23-369)
T1 sequence (looked up) 1: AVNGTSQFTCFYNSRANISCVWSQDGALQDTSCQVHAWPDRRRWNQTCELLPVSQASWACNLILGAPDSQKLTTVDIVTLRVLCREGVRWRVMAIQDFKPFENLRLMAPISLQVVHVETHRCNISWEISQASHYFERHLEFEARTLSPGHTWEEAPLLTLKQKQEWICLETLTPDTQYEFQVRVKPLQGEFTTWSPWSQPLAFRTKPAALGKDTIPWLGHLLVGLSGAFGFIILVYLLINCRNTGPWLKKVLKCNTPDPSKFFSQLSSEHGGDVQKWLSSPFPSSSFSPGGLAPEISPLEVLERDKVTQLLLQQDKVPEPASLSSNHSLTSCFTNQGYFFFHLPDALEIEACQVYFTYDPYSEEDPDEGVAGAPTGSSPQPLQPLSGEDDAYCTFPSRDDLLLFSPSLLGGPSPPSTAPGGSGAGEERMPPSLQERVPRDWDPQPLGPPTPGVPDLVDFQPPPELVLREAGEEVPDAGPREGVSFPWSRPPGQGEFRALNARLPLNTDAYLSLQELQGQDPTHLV
T1 sequence (looked up) 2: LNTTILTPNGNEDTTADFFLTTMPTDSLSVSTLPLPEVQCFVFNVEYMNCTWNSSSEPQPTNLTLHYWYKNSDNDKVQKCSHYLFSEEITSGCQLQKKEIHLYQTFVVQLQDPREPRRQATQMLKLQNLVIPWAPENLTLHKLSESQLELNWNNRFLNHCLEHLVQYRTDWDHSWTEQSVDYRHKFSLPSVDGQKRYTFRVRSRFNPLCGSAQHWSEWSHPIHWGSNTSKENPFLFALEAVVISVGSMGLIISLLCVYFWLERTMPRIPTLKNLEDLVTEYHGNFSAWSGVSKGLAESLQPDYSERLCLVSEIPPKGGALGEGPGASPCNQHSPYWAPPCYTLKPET

T2: IL-2Rα/β/γc complex (high affinity receptor) on human activated CD8+ T cells (human, UniProt P01589 22-272; P14784 27-551; P31785 23-369)
T2 sequence (looked up) 1: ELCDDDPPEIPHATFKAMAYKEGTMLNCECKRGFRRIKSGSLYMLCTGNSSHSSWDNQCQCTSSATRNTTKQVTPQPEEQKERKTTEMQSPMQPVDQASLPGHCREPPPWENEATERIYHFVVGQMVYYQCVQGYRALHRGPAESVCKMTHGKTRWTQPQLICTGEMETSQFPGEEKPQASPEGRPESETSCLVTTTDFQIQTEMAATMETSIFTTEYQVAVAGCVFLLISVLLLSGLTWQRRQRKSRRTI
T2 sequence (looked up) 2: T1 sequence (looked up) 1
T2 sequence (looked up) 3: T1 sequence (looked up) 2

B1: W3XX115-T2U0.E44-44.uIgG4V322 (Fc fusion)
chain: APTSSSTKKTQLQLEHLLLDLQMILNGINNYKNPKLTRMLTFKFYMPKKATGLKHLQCLEEELKPLEEVLNLAQSKNFHLRPRDLISNINVIVLELKGSETTFMCEYADETATIVEFLNRWITFCQSIIESKYGPPCPPCPAPEAAGGPSVFLFPPKPKDTLMISRTPEVTCVVVDVSQEDPEVQFNWYVDGVEVHNAKTKPREEQFNSTYRVVSVLTVLHQDWLNGKEYKCKVSNKGLPSSIEKTISKAKGQPREPQVYTLPPCQEEMTKNQVSLWCLVKGFYPSDIAVEWESNGQPENNYKTTPPVLDSDGSFFLYSRLTVDKSRWQEGNVFSCSVMHEALHNHYTQKSLSLSLG
heavy: EIQLQQSGPELVKPGASVKVSCKASGYSFTDYNMYWVKQSHGESLEWIGYIDPYNGGTRYNQKFKGKATLTVDKSSSTAFMHLNSLTSEDSAVYYCARNGHWDGAWFAYWGQGTLVTVSAASTKGPSVFPLAPCSRSTSESTAALGCLVKDYFPEPVTVSWNSGALTSGVHTFPAVLQSSGLYSLSSVVTVPSSSLGTKTYTCNVDHKPSNTKVDKRVESKYGPPCPPCPAPEAAGGPSVFLFPPKPKDTLMISRTPEVTCVVVDVSQEDPEVQFNWYVDGVEVHNAKTKPREEQFNSTYRVVSVLTVLHQDWLNGKEYKCKVSNKGLPSSIEKTISKAKGQPREPQVCTLPPSQEEMTKNQVSLSCAVKGFYPSDIAVEWESNGQPENNYKTTPPVLDSDGSFFLVSRLTVDKSRWQEGNVFSCSVMHEALHNHYTQKSLSLSLG
light: DIQMNQSPSSLSASLGDTITITCHASQNINVWLSWYQQKPGNIPKLLIYKASNLHTGVPSRFSGSRSGTGFTLTISSLQPEDIATYYCHQGQSYPFTFGSGTKLEIKRTVAAPSVFIFPPSDEQLKSGTASVVCLLNNFYPREAKVQWKVDNALQSGNSQESVTEQDSKDSTYSLSSTLTLSKADYEKHKVYACEVTHQGLSSPVTKSFNRGEC
B2: W3XX115-T2U0.E44-6.uIgG4V322 (Fc fusion)
chain: B1 chain with G52E
heavy: B1 heavy
light: B1 light
B3: W3XX115-T2U0.E44-40.uIgG4V322 (Fc fusion)
chain: B1 chain with G52E, E110R
heavy: B1 heavy
light: B1 light
B4: W3XX115-T2U0.E44-47.uIgG4V322 (Fc fusion)
chain: B1 chain with G52E, P82Y
heavy: B1 heavy
light: B1 light
B5: W3XX115-T2U0.E44-43.uIgG4V322 (Fc fusion)
chain: B1 chain with K32D, G52E
heavy: B1 heavy
light: B1 light
B6: W3XX115-T2U0.E44-45.uIgG4V322 (Fc fusion)
chain: B1 chain with G52E, K76R
heavy: B1 heavy
light: B1 light
B7: W3XX115-T2U0.E44-46.uIgG4V322 (Fc fusion)
chain: B1 chain with G52E, F78G
heavy: B1 heavy
light: B1 light
B8: W3XX115-T2U3.E44-15.uIgG4V322 (Fc fusion)
chain: APTSSSTKKTQLQLEHLLLDLQMILNGINNYKNPKLTRMLTVKFYMPKKATELKHLQCLEEELKPLEEVLNLAQSKNFHLRPRDLISNINVIVLELKGSETTFMCEYADETATIVEFLNRWITFCQSIIESKYGPPCPPCPAPEAAGGPSVFLFPPKPKDTLMISRTPEVTCVVVDVSQEDPEVQFNWYVDGVEVHNAKTKPREEQFNSTYRVVSVLTVLHQDWLNGKEYKCKVSNKGLPSSIEKTISKAKGQPREPQVYTLPPCQEEMTKNQVSLWCLVKGFYPSDIAVEWESNGQPENNYKTTPPVLDSDGSFFLYSRLTVDKSRWQEGNVFSCSVMHEALHNHYTQKSLSLSLGK
heavy: QVQLVQSGAEVKKPGSSVKVSCKASGFTFTTYYISWVRQAPGQGLEYLGYINMGSGGTNYNEKFKGRVTITADKSTSTAYMELSSLRSEDTAVYYCAIIGYFDYWGQGTMVTVSSASTKGPSVFPLAPCSRSTSESTAALGCLVKDYFPEPVTVSWNSGALTSGVHTFPAVLQSSGLYSLSSVVTVPSSSLGTKTYTCNVDHKPSNTKVDKRVESKYGPPCPPCPAPEAAGGPSVFLFPPKPKDTLMISRTPEVTCVVVDVSQEDPEVQFNWYVDGVEVHNAKTKPREEQFNSTYRVVSVLTVLHQDWLNGKEYKCKVSNKGLPSSIEKTISKAKGQPREPQVCTLPPSQEEMTKNQVSLSCAVKGFYPSDIAVEWESNGQPENNYKTTPPVLDSDGSFFLVSRLTVDKSRWQEGNVFSCSVMHEALHNHYTQKSLSLSLGK
light: DVVMTQSPLSLPVTLGQPASISCRSSQSLLDSDGGTYLYWFQQRPGQSPRRLIYLVSTLGSGVPDRFSGSGSGTDFTLKISRVEAEDVGVYYCMQLTHWPYTFGQGTKLEIKRTVAAPSVFIFPPSDEQLKSGTASVVCLLNNFYPREAKVQWKVDNALQSGNSQESVTEQDSKDSTYSLSSTLTLSKADYEKHKVYACEVTHQGLSSPVTKSFNRGEC
B9: W3XX115-T2U10.Z73-56.uIgG4V322 (Fc fusion)
chain 1: B8 chain with K32D, V42I, D84K, I129L
chain 2: QVQLVESGGGVVQPGGSLRLSCAASDSIDSLVNMGWYRQAPGKQRELVALIATYITHYADFVKGRFTISRDNSKNTLYLQMNSLRAEDTAVYYCYARNIIVDYWGQGTLVTVSSGGGGSGGGGSGGGGSQVQLVESGGGVVQPGGSLRLSCAASDSIDSLVNMGWYRQAPGKQRELVALIATYITHYADFVKGRFTISRDNSKNTLYLQMNSLRAEDTAVYYCYARNIIVDYWGQGTLVTVSSESKYGPPCPPCPAPEAAGGPSVFLFPPKPKDTLMISRTPEVTCVVVDVSQEDPEVQFNWYVDGVEVHNAKTKPREEQFNSTYRVVSVLTVLHQDWLNGKEYKCKVSNKGLPSSIEKTISKAKGQPREPQVCTLPPSQEEMTKNQVSLSCAVKGFYPSDIAVEWESNGQPENNYKTTPPVLDSDGSFFLVSRLTVDKSRWQEGNVFSCSVMHEALHNHYTQKSLSLSLG
B10: W3XX115-T2U10.Z73-62.uIgG4V322 (Fc fusion)
chain 1: B8 chain with K32D, V42I, L94D, I129L
chain 2: B9 chain 2
B11: W3XX115-T2U10.Z73-63.uIgG4V322 (Fc fusion)
chain 1: B8 chain with K32D, V42I, E95R, I129L
chain 2: B9 chain 2
B12: W3XX115-T2U10.Z73-60.uIgG4V322 (Fc fusion)
chain 1: B8 chain with K32D, V42I, I92R, I129L
chain 2: B9 chain 2
B13: W3XX115-T2U10.Z73-58.uIgG4V322 (Fc fusion)
chain 1: B8 chain with K32D, V42I, N88K, I129L
chain 2: B9 chain 2
B14: W3XX115-T2U10.Z73-59.uIgG4V322 (Fc fusion)
chain 1: B8 chain with K32D, V42I, V91E, I129L
chain 2: B9 chain 2
B15: W3XX115-T2U10.Z73-64.uIgG4V322 (Fc fusion)
chain 1: B8 chain with K32D, V42I, N119R, I129L
chain 2: B9 chain 2
B16: W3XX115-T2U10.Z73-61.uIgG4V322 (Fc fusion)
chain 1: B8 chain with K32D, V42I, I92D, I129L
chain 2: B9 chain 2

What follows are binders tested against T1, IL-2Rβ/γc complex (intermediate …) (assay: cell-based or functional assay).

Row | Potency reduction, pSTAT5, human primary CD8+ T | pSTAT5 EC50, human primary CD8+ T | Binder
1 | 11.3 fold | 86.2 nM | B1
2 | 18.3 fold | 145 nM | B2
3 | 36.9 fold | 282 nM | B3
4 | 27.6 fold | 211 nM | B4
5 | 17.6 fold | 135 nM | B5
6 | 31.4 fold | 240 nM | B6
7 | 7.6 fold | 58.4 nM | B7

Biological target: T1, IL-2Rβ/γc complex (intermediate …)
Assay: cell-based or functional assay
Remark: another data set of the same source

Row | Potency reduction, pSTAT5, human primary CD8+ T | pSTAT5 EC50, human primary CD8+ T | Binder
8 | 132 fold | 1.87 µM | B8

These binders were tested against T2, IL-2Rα/β/γc complex (high affinity …) (assay: cell-based or functional assay).

Row | Potency reduction, pSTAT5, human activated CD8+ T (CD25 positive and PD-1 positive) | pSTAT5 EC50, human activated CD8+ T (CD25 positive and PD-1 positive) | Binder
9 | 139 fold | 3.78 nM | B8

Each binder was assayed against PD-1 (on CHO-PD1 engineered cell line; on activated CD8+ T cells) (UniProt Q15116 25-288, limits assumed) (assay: cell-based or functional assay).

Row | PD-1+/PD-1- ratio (pSTAT5 potency, activated versus primary CD8+ T) | Binder
10 | 496 fold | B8

Biological target: T1, IL-2Rβ/γc complex (intermediate …)
Assay: cell-based or functional assay
Remark: another data set of the same source

Row | Potency reduction, pSTAT5, human activated CD8+ T | Binder
11 | 2.5 fold | B9
12 | 6.5 fold | B10
13 | 2.5 fold | B11
14 | 10 fold | B12
15 | 26.1 fold | B13
16 | 18.9 fold | B14
17 | 58.7 fold | B15
18 | 14.2 fold | B16
